Data from paper doi:10.1101/779439.
pKd: −log10 of the molar value.

Molecular target: peptide of CD3 zeta chain containing SNID2 (residues 115-135)
Assay: ITC

Substance | pKd
SIVmac239 Nef full core domain (residues 90-263), His-tagged, as used for ITC (domain or fragment) | 5.30
HIV-2 consensus Nef core domain (residues 90-256) (domain or fragment) | 4.92
